Data reported in patent US20240209076A1 (KODIAK SCIENCES, published 2024).
Residue numbers refer to the chain shown, from its start. Names and notes keep the numbering of the source.

B1: Anti-IL-6 antibody, heavy chain S35H, G66D, Q99V / light chain WT (antibody, IgG1, V domains shown)
VH: EVQLVESGGGLVQPGGSLRLSCAASGFTFSPFAMHWVRQAPGKGLEWVAKISPGGSWTYYSDTVTDRFTFSLDTSKSTAYLQMNSLRAEDTAVYYCARVLWGYYALDIWGQGTLVTVSS
VL: DIQLTQSPSSLSASVGDRVTITCSASISVSYMYWYQQKPGKAPKLLIYDMSNLASGVPSRFSGSGSGTDFTLTISSLQPEDFATYYCMQWSGYPYTFGQGTKVEIK
notes: IgG1; variable domains only
B2: Anti-IL-6 antibody, heavy chain WT / light chain M32L, M50D, N52S, M88Q (antibody, IgG1, V domains shown)
VH: B1 VH with H35S, D66G, V99Q
VL: B1 VL with M32L, M50D, N52S, M88Q
notes: IgG1; variable domains only; VL is variant III
B3: Anti-IL-6 antibody, heavy chain S35H, G66D, Q99P / light chain M32L, M50D, N52S, M88Q (antibody, IgG1, V domains shown)
VH: B1 VH with V99P
VL: B1 VL with M32L, M50D, N52S, M88Q
notes: as for B2
B4: Anti-IL-6 antibody, heavy chain S35H, G66D, Q99S / light chain WT (antibody, IgG1, V domains shown)
VH: B1 VH with V99S
VL: B1 VL
notes: IgG1; variable domains only
B5: Anti-IL-6 antibody, heavy chain S35H, G66D, Q99Y / light chain WT (antibody, IgG1, V domains shown)
VH: B1 VH with V99Y
VL: B1 VL
notes: IgG1; variable domains only
B6: Anti-IL-6 antibody, heavy chain S35H, G66D, Q99K / light chain M32L, M50D, N52S, M88Q (antibody, IgG1, V domains shown)
VH: B1 VH with V99K
VL: B1 VL with M32L, M50D, N52S, M88Q
notes: as for B2
B7: Anti-IL-6 antibody, heavy chain S35H, G66D, Q99R / light chain M32L, M50D, N52S, M88Q (antibody, IgG1, V domains shown)
VH: B1 VH with V99R
VL: B1 VL with M32L, M50D, N52S, M88Q
notes: as for B2
B8: Anti-IL-6 antibody, heavy chain S35H, G66D, Q99R / light chain WT (antibody, IgG1, V domains shown)
VH: B1 VH with V99R
VL: B1 VL
notes: IgG1; variable domains only
B9: Anti-IL-6 antibody, heavy chain S35H, G66D, Q99I / light chain WT (antibody, IgG1, V domains shown)
VH: B1 VH with V99I
VL: B1 VL
notes: IgG1; variable domains only
B10: Anti-IL-6 antibody, heavy chain S35H, G66D, Q99V / light chain M32L, M50D, N52S, M88Q (antibody, IgG1, V domains shown)
VH: B1 VH
VL: B1 VL with M32L, M50D, N52S, M88Q
notes: as for B2
B11: Anti-IL-6 antibody, heavy chain S35H, G66D, Q99T / light chain WT (antibody, IgG1, V domains shown)
VH: B1 VH with V99T
VL: B1 VL
notes: IgG1; variable domains only
B12: Anti-IL-6 antibody, heavy chain S35H, G66D, Q99K / light chain WT (antibody, IgG1, V domains shown)
VH: B1 VH with V99K
VL: B1 VL
notes: IgG1; variable domains only
B13: Anti-IL-6 antibody, heavy chain S35H, G66D, Q99L / light chain M32L, M50D, N52S, M88Q (antibody, IgG1, V domains shown)
VH: B1 VH with V99L
VL: B1 VL with M32L, M50D, N52S, M88Q
notes: as for B2
B14: Anti-IL-6 antibody, heavy chain S35H, G66D, Q99Y / light chain M32L, M50D, N52S, M88Q (antibody, IgG1, V domains shown)
VH: B1 VH with V99Y
VL: B1 VL with M32L, M50D, N52S, M88Q
notes: as for B2
B15: Anti-IL-6 antibody, heavy chain S35H, G66D, Q99S / light chain M32L, M50D, N52S, M88Q (antibody, IgG1, V domains shown)
VH: B1 VH with V99S
VL: B1 VL with M32L, M50D, N52S, M88Q
notes: as for B2
B16: Anti-IL-6 antibody, heavy chain S35H, G66D, Q99T / light chain M32L, M50D, N52S, M88Q (antibody, IgG1, V domains shown)
VH: B1 VH with V99T
VL: B1 VL with M32L, M50D, N52S, M88Q
notes: as for B2
B17: Anti-IL-6 antibody, heavy chain S35H, G66D, Q99L / light chain WT (antibody, IgG1, V domains shown)
VH: B1 VH with V99L
VL: B1 VL
notes: IgG1; variable domains only
B18: anti-IL-6 antibody, heavy chain I51A, G66D / light chain M32L, M50D, N52S, M88Q (antibody, IgG1, V domains shown)
VH: B1 VH with H35S, I51A, V99Q
VL: B1 VL with M32L, M50D, N52S, M88Q
notes: Full IgG1 (Expi293); VL = variant III
B19: anti-IL-6 antibody, heavy chain I51G, G66D / light chain M32L, M50D, N52S, M88Q (antibody, IgG1, V domains shown)
VH: B1 VH with H35S, I51G, V99Q
VL: B1 VL with M32L, M50D, N52S, M88Q
notes: as for B18
B20: anti-IL-6 antibody, heavy chain I51S, G66D / light chain M32L, M50D, N52S, M88Q (antibody, IgG1, V domains shown)
VH: B1 VH with H35S, I51S, V99Q
VL: B1 VL with M32L, M50D, N52S, M88Q
notes: as for B18
B21: anti-IL-6 antibody, heavy chain I51E, G66D / light chain M32L, M50D, N52S, M88Q (antibody, IgG1, V domains shown)
VH: B1 VH with H35S, I51E, V99Q
VL: B1 VL with M32L, M50D, N52S, M88Q
notes: as for B18
B22: anti-IL-6 antibody, heavy chain I51V, G66D / light chain M32L, M50D, N52S, M88Q (antibody, IgG1, V domains shown)
VH: B1 VH with H35S, I51V, V99Q
VL: B1 VL with M32L, M50D, N52S, M88Q
notes: as for B18
B23: anti-IL-6 antibody, heavy chain I51T, G66D / light chain M32L, M50D, N52S, M88Q (antibody, IgG1, V domains shown)
VH: B1 VH with H35S, I51T, V99Q
VL: B1 VL with M32L, M50D, N52S, M88Q
notes: as for B18
B24: anti-IL-6 antibody, heavy chain I51K, G66D / light chain M32L, M50D, N52S, M88Q (antibody, IgG1, V domains shown)
VH: B1 VH with H35S, I51K, V99Q
VL: B1 VL with M32L, M50D, N52S, M88Q
notes: as for B18
B25: anti-IL-6 antibody, heavy chain I51F, G66D / light chain M32L, M50D, N52S, M88Q (antibody, IgG1, V domains shown)
VH: B1 VH with H35S, I51F, V99Q
VL: B1 VL with M32L, M50D, N52S, M88Q
notes: as for B18
B26: anti-IL-6 antibody, heavy chain I51H, G66D / light chain M32L, M50D, N52S, M88Q (antibody, IgG1, V domains shown)
VH: B1 VH with H35S, I51H, V99Q
VL: B1 VL with M32L, M50D, N52S, M88Q
notes: as for B18
B27: anti-IL-6 antibody, heavy chain I51W, G66D / light chain M32L, M50D, N52S, M88Q (antibody, IgG1, V domains shown)
VH: B1 VH with H35S, I51W, V99Q
VL: B1 VL with M32L, M50D, N52S, M88Q
notes: as for B18
B28: anti-IL-6 antibody, heavy chain I51Q, G66D / light chain M32L, M50D, N52S, M88Q (antibody, IgG1, V domains shown)
VH: B1 VH with H35S, I51Q, V99Q
VL: B1 VL with M32L, M50D, N52S, M88Q
notes: as for B18
B29: anti-IL-6 antibody, heavy chain I51D, G66D / light chain M32L, M50D, N52S, M88Q (antibody, IgG1, V domains shown)
VH: B1 VH with H35S, I51D, V99Q
VL: B1 VL with M32L, M50D, N52S, M88Q
notes: as for B18
B30: anti-IL-6 antibody, heavy chain I51L, G66D / light chain M32L, M50D, N52S, M88Q (antibody, IgG1, V domains shown)
VH: B1 VH with H35S, I51L, V99Q
VL: B1 VL with M32L, M50D, N52S, M88Q
notes: as for B18
B31: anti-IL-6 antibody, heavy chain I51R, G66D / light chain M32L, M50D, N52S, M88Q (antibody, IgG1, V domains shown)
VH: B1 VH with H35S, I51R, V99Q
VL: B1 VL with M32L, M50D, N52S, M88Q
notes: as for B18

Target: human IL-6 (human, UniProt P05231 30-212)
Assay: SPR Biacore, supernatant, Protein A capture, 37 C
Procedure: Those four positions were selected based on their tolerance for mutations as observed in bacterial and mammalian screens. […] These cultures were centrifuged and supernatants containing secreted antibodies were harvested and diluted in HBS-EP+ running buffer (1:20 ratio).
(§1) Antibodies were captured on a Protein A chip (GE) by injecting 1:20 cell supernatant dilutions at 10 μL/min for 60 seconds. […] The sensor chip was regenerated by a 60 seconds injection of 10 mM Glycine pH 1.7 at the flow rate of 50 μL/min. […] For this setup, 1 μg/mL of purified antibody was injected over a Protein A chip at 10 μL/min for 25 seconds. […] The sensor chip was regenerated by a 60 seconds injection of 10 mM Glycine pH 1.7 at flow rate of 50 μL/min. Data analysis for supernatant and purified samples were performed using BIAevaluation software (GE). All sensorgrams were double reference subtracted and fit using a 1:1 Langmuir binding model.
Target sequence in this assay (P05231 30-212 limits assumed): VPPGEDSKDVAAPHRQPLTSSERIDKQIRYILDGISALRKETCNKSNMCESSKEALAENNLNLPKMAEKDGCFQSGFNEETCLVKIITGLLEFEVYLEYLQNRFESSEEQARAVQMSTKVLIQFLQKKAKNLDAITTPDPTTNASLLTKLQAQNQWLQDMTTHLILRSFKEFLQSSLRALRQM

Binder	Kd	koff	kon
B1	4.8 nM	0.00431 s⁻¹	898000 M⁻¹ s⁻¹
B2	0.686 nM	0.000631 s⁻¹	920000 M⁻¹ s⁻¹
B3	1.35 nM	0.00169 s⁻¹	1.25e+06 M⁻¹ s⁻¹
B4	6.48 nM	0.0257 s⁻¹	3.96e+06 M⁻¹ s⁻¹
B5	0.825 nM	0.00215 s⁻¹	2.6e+06 M⁻¹ s⁻¹
B6	0.368 nM	0.00146 s⁻¹	3.97e+06 M⁻¹ s⁻¹
B7	2.34 nM	0.000657 s⁻¹	280000 M⁻¹ s⁻¹
B8	11.4 nM	0.00161 s⁻¹	141000 M⁻¹ s⁻¹
B9	3.86 nM	0.00335 s⁻¹	868000 M⁻¹ s⁻¹
B10	1.76 nM	0.0014 s⁻¹	794000 M⁻¹ s⁻¹
B11	1.31 nM	0.00222 s⁻¹	1.69e+06 M⁻¹ s⁻¹
B12	15.1 nM	0.00333 s⁻¹	220000 M⁻¹ s⁻¹
B13	0.595 nM	0.000775 s⁻¹	1.3e+06 M⁻¹ s⁻¹
B14	2.51 nM	0.00547 s⁻¹	2.17e+06 M⁻¹ s⁻¹
B15	7.66 nM	0.00154 s⁻¹	201000 M⁻¹ s⁻¹
B16	6.51 nM	0.049 s⁻¹	7.52e+06 M⁻¹ s⁻¹
B17	0.244 nM	0.000262 s⁻¹	1.07e+06 M⁻¹ s⁻¹

Target: T1, human IL-6 (human, UniProt P05231 30-212)
T1 construct: IL-6 flowed over captured antibodies
Assay: SPR Biacore, supernatant Ab on Protein A chip, 37 C
Procedure: as §1
T1 sequence (P05231 30-212 limits assumed): as above

Binder	Kd	koff	kon
B18	0.559 nM	0.000899 s⁻¹	1.61e+06 M⁻¹ s⁻¹
B19	0.652 nM	0.000912 s⁻¹	1.4e+06 M⁻¹ s⁻¹
B20	0.217 nM	0.000401 s⁻¹	1.85e+06 M⁻¹ s⁻¹
B21	2.14 nM	0.00196 s⁻¹	914000 M⁻¹ s⁻¹
B22	1.11 nM	0.00195 s⁻¹	1.76e+06 M⁻¹ s⁻¹
B23	0.233 nM	0.000478 s⁻¹	2.05e+06 M⁻¹ s⁻¹
B24	0.349 nM	0.000601 s⁻¹	1.72e+06 M⁻¹ s⁻¹
B25	4.45 nM	0.00611 s⁻¹	1.37e+06 M⁻¹ s⁻¹
B26	0.5 nM	0.00104 s⁻¹	2.07e+06 M⁻¹ s⁻¹
B27	4.84 nM	0.00383 s⁻¹	791000 M⁻¹ s⁻¹
B28	0.575 nM	0.00113 s⁻¹	1.96e+06 M⁻¹ s⁻¹
B29	9.58 nM	0.00799 s⁻¹	834000 M⁻¹ s⁻¹
B30	0.98 nM	0.00161 s⁻¹	1.64e+06 M⁻¹ s⁻¹
B31	0.0357 nM	5.8e-05 s⁻¹	1.63e+06 M⁻¹ s⁻¹
